Where a chain is given by its changes, count along the chain named.
T1: PRLR-expressing cells (T47D) (Homo sapiens, UniProt P16471)
T1 construct: a native PRLR expressing cell line (T47D); endogenous in cells; host or cells: T47D
T1 sequence (P16471 25-622): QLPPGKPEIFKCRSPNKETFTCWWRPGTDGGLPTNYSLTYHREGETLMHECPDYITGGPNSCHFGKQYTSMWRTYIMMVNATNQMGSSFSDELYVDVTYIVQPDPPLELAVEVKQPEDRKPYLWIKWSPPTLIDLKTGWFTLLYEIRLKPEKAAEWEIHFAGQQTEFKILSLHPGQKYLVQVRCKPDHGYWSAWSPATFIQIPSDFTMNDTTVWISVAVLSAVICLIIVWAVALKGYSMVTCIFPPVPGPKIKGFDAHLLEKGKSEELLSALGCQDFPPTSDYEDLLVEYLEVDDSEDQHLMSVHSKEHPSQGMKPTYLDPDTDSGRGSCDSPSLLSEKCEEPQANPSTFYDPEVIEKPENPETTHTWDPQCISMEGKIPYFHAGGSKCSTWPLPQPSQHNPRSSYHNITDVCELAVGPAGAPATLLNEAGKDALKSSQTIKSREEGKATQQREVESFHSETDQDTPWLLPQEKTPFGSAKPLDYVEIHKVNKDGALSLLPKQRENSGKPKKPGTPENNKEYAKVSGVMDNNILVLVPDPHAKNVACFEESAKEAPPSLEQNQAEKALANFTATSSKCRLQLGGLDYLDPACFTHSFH

T2: HEK293/mPRLR (Mus musculus, UniProt Q08501)
T2 construct: HA; expressed in transfected cells; host or cells: HEK293
T2 sequence (Q08501 20-608): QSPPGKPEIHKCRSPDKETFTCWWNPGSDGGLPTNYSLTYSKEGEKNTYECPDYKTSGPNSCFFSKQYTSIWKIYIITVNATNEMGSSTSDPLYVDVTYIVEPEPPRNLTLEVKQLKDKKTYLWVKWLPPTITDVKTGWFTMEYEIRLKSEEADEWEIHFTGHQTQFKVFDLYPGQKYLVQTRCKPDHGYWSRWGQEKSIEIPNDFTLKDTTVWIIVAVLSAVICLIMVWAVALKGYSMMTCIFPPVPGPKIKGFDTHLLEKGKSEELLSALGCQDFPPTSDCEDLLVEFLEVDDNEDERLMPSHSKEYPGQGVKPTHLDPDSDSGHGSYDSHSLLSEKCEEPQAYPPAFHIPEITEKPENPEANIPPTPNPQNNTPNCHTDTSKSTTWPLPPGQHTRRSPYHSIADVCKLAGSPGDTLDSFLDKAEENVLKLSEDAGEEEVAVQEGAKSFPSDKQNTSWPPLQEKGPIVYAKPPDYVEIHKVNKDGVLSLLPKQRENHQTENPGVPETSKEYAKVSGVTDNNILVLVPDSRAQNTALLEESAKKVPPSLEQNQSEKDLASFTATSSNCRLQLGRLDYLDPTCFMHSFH

T3: T47D (native PRLR expressing cell line) (Homo sapiens, UniProt P16471)
T3 construct: a native PRLR expressing cell line (T47D); endogenous in cells; host or cells: T47D
T3 sequence (P16471 25-622): T1 sequence (P16471 25-622)

T4: HEK293/hPRLR (Homo sapiens, UniProt P16471)
T4 construct: HA; expressed in transfected cells; host or cells: HEK293
T4 sequence (P16471 25-622): T1 sequence (P16471 25-622)

B1: H1H6959N2: human IgG1 Fc form of H2M6959N2; anti-PRLR; HCVR/LCVR SEQ ID NOs 306/314 (antibody, V domains shown)
VH: EVQLVESGGGLVQPGRSLRLSCAASGFTFDDYAMHWVRQAPGKGLEWVSGISWHSGIIGYADSVKGRFTISRDNAKNSLYLQMNSLRTEDAALYYCAKIGSYFYFDSWGQGTLVTVSS
VL: EIVLTQSPGTLSLSPGERATLSCRASQSVSSNYLAWYQQKPGQAPRLLIYGASSRATGIPDRFSGSGSGTDFTLTISRLEPEDFAVYYCQQFGSSGYTFGQGTNLEIK
modifications: human IgG1 Fc
B2: H1H6960N: human IgG1 Fc form of H2M6960N; anti-PRLR; HCVR/LCVR SEQ ID NOs 322/330 (antibody, V domains shown)
VH: EVQLVESGGGLVKPGGSLRLSCAASGITFSSYSMNWVRQAPGKGLEWVSSISTRSSLIHYADSVKGRFTISRDNAKNSLYLQMNSLRDEDTAVYYCARWDAAAAFDYWGQGTLVIVSS
VL: DIQLTQSPSFLSASVGDRVTITCWASQGISSYLAWYQQKPGKAPKLLIYVASTLQSGVPSRFSGSGSGTEFTLTISSLQPEDFATYFCQQLNSYPLTFGGGTKVEIK
modifications: human IgG1 Fc
B3: H1H6976N: human IgG1 Fc form of H2M6976N; anti-PRLR; HCVR/LCVR SEQ ID NOs 386/394 (antibody, V domains shown)
VH: EVQLLESGGGFVQPGGSLRLSCAASGFTFSSYAMSWVRQAPGKGLEWVSIISSNGRYTYYADSVKGRFTISRDNSKNTLYLQMNSLRAEDTAVYYCATVTGDWFDPWGQGTLVTVSS
VL: DIQLTQSPSFLSASVGDRVTITCWASQDIDISLAWYQQKPGKAPKLLIYAASTLQSGVPSKFSGSGSGTDFTLTISSLQPEDFSTYYCQQLNSYPITFGQGTRLDIK
modifications: human IgG1 Fc
B4: H1H6975N: human IgG1 Fc form of H2M6975N; anti-PRLR; HCVR/LCVR SEQ ID NOs 370/378 (antibody, V domains shown)
VH: EVHLVESGGGLVQPGGSLRLSCAASGFTFSSYEMNWVRQTPGKGLEWISHISSRSVIIYYADSVKGRFTISRDNAKNSLFLQMNSLRAEDTAVYFCAGITIFGIPEYWGQGTLVTVSS
VL: EIVLTQSPATLSLSPGERATLSCRASQSVSSYFAWYQQKPGQAPRLLIYDASSRATGIPTRFSGSGSGTDFTLTISSLEPEDFAVYYCQQRSSWPITFGQGTRLEIK
modifications: human IgG1 Fc
B5: H1H6958N2: human IgG1 Fc form of H2M6958N2; anti-PRLR, receptor blocking; HCVR/LCVR SEQ ID NOs 290/298 (antibody, V domains shown)
VH: QVQLVESGGGVVQPGRSLRLSCGASGFTFRNYGMQWVRQGPGKGLEWVTLISFDGNDKYYADSVKGRFTISRDNSKNTLFLQMNSLRTEDTAVYYCARGGDFDYWGQGTLVTVSS
VL: DIQMTQSPSSLSASVGDRVTITCRASQDIRKDLGWYQQKPGKAPKRLIYAASSLHSGVPSRFSGSGSGTEFTLTISSLQPEDFATYYCLQHNSYPMYTFGQGTKLEIK
modifications: human IgG1 Fc
B6: H1H6966N: human IgG1 Fc form of H2M6966N; anti-PRLR; HCVR/LCVR SEQ ID NOs 338/346 (antibody, V domains shown)
VH: QVQLVQSGAEVQKPGASVKVSCKVSGYTLTALSIHWVRQAPGKGLEWMGNFDPGDGETIHAQKFQGRVTMTGDTSTDTAYMELSSLRSEDTAVYYCVGVTFDYWGQGTLVTVSS
VL: EIVMTQSPATLSVSPGERATLSCRASQSVASNLAWYQQKPGQAPRLLLYGASTRATGIPARFSGSGSGTEFTLTISSLQSEDFALYYCQHYNNWPLTFGGGTKVEIK
modifications: human IgG1 Fc
B7: H1H6967N: human IgG1 Fc form of H2M6967N; anti-PRLR; HCVR/LCVR SEQ ID NOs 354/362 (antibody, V domains shown)
VH: EVQLVESGGDLVHPGRSLRLSCAASGFPFDEYAMHWVRQVPGKGLEWVSGISWSNNNIGYADSVKGRFTISRDNAKNSLYLQMNSLRPEDTAFYYCAKSGIFDSWGQGTLVTVSS
VL: B6 VL with A30S, S31R, N32D, L48I, Y49H, T69A, T74I, L85V, H90Q
modifications: human IgG1 Fc

target: T1, PRLR-expressing cells (T47D); test: Antibody binding and internalization by PRLR-expressing cells (imaging); format: cell-based; conditions: [mAb] (0.67 nM), alexa488 intensity in intracellular vesicles, 1 h at 37° C.
Experimental: In this Example, the internalization of anti-PRLR antibodies by PRLR-expressing cells (T47D) was assessed. Briefly, 20,000 T47D cells were seeded in collagen coated 96 well plates. […] Cells were then incubated with alexa488 conjugated anti-hFc Fab secondary antibodies for 30 minutes on ice followed by two additional PBS washes. Antibodies were allowed to internalize for 1 h at 37° C. in internalization buffer (PBS+2% FBS) or remained at 4° C. Cells were fixed in 4% formaldehyde, nuclei were stained with DRAQ5 (Cell signaling), and images were acquired on the ImageXpress micro XL (Molecular Devices). Whole cell alexa488 intensity at 37° C. (Binding) and the alexa488 intensity in the intracellular vesicles at 37° C. (Internalization) were determined via Columbus image analysis software (PerkinElmer).

| % Internalization relative to Control I [%] | Molecule |
| --- | --- |
| 15.3 | B1 |
| 120.0 | B2 |
| 169.5 | B3 |
| 214.2 | B4 |
| 169.0 | B5 |
| 137.2 | B6 |
| 168.6 | B7 |

same assay, conditions: [mAb] (0.67 nM), whole cell alexa488 intensity at 37° C.

| % Total Binding relative to Control I [%] | Molecule |
| --- | --- |
| 2.0 | B1 |
| 89.7 | B2 |
| 180.4 | B3 |
| 225.9 | B4 |
| 161.5 | B5 |
| 111.3 | B6 |
| 158.6 | B7 |

target: T2, HEK293/mPRLR; test: FACS cell surface binding; conditions: not given
Experimental: (§1) The ability of anti-PRLR antibodies to selectively bind PRLR expressing cell lines was next determined. Human, monkey macaca fascicularis, and mouse PRLR constructs with an HA tag were stably introduced into HEK293 cells via Lipofectamine 2000-mediated transfection methodology. Transfectants (HEK293/hPRLR, HEK293/mfPRLR and HEK293/mPRLR) were selected for at least 2 weeks in complete growth media plus G418.
(§2) Cell surface expression of PRLR on 293/hPRLR cells was assessed via FACS analysis. Briefly, 1×10^5 cells were incubated with 10 μg/ml of Control antibody I, or an isotype control for 30 min on ice in antibody dilution buffer. Following two washes with antibody dilution buffer, cells were incubated with 10 μg/ml of PE conjugated anti-human secondary antibodies for 30 min on ice. Following two additional washes, samples were run on a Hypercyt® cytometer and analyzed in FORECYT™ (IntelliCyt, Albuquerque, N. Mex.). The mean fluorescence intensities (MFI) were expressed as fold change above isotype control levels (background). FACS binding confirmed that Control I selectively bound to 293/hPRLR expressing cells with MFIs that were 30 fold above background (isotype ctrl) levels and less than 2 fold binding on parental cells.
(§3) Next, the anti-PRLR antibodies of the present invention were tested via FACS for selective binding to the engineered overexpressing PRLR HEK293 cell lines, as well as to non-expressing HEK293 cells and a native PRLR expressing cell line (T47D).

| FACS Cell Binding (Fold Above Background) | Molecule |
| --- | --- |
| 2 | B1 |
| 1 | B2 |
| 1 | B3 |
| 1 | B4 |
| 1 | B5 |
| 1 | B6 |
| 2 | B7 |

target: T3, T47D (native PRLR expressing cell line); test: FACS cell surface binding; conditions: not given
Experimental: as §1, §2, §3

| FACS Cell Binding (Fold Above Background) | Molecule |
| --- | --- |
| 9 | B1 |
| 33 | B2 |
| 37 | B3 |
| 46 | B4 |
| 37 | B5 |
| 31 | B6 |
| 41 | B7 |

test system: HEK293 (non-expressing parental cells); test: FACS cell surface binding; conditions: not given
Experimental: as §1, §2, §3

| Molecule | FACS Cell Binding (Fold Above Background) |
| --- | --- |
| B1 | 1 |
| B2 | 1 |
| B3 | 1 |
| B4 | 1 |
| B5 | 1 |
| B6 | 1 |
| B7 | 1 |

target: T4, HEK293/hPRLR; test: FACS cell surface binding; conditions: not given
Experimental: as §1, §2, §3

| FACS Cell Binding (Fold Above Background) | Molecule |
| --- | --- |
| 6 | B1 |
| 29 | B2 |
| 8 | B3 |
| 38 | B4 |
| 35 | B5 |
| 29 | B6 |
| 38 | B7 |

— patent US9688764B2, “Methods of treating breast cancer by administering anti-human prolactin receptor (PRLR) antibodies” (REGENERON PHARMACEUTICALS, INC., priority 2013, dated 2017)
